Reference: paper doi:10.1101/2022.11.03.515015
“And” between values parts separate entries of the source, which are not always exact repeats. Equal entries are not always repeated.

Assays:
Details in all cases: remark: other sources report otherwise
[1] = molecular target: full-length human UBR5 (construct for single-particle analysis: 10xHis, 3C site, UBR5, double strep tag) (human) (UniProt O95071); experiment: mass photometry
[2] = molecular target: full-length human UBR5 (construct for single-particle analysis: 10xHis, 3C site, UBR5, double strep tag) (human) (UniProt O95071); experiment: cryo-EM structure
[3] = molecular target: full-length human UBR5 (construct for single-particle analysis: 10xHis, 3C site, UBR5, double strep tag) (human) (UniProt O95071); experiment: mass photometry; remark: listed apart in the source

stoichiometry N [1]: 4 | stoichiometry N [2]: 4 and 2 | stoichiometry N [3]: 2
Substance: full-length human UBR5 (construct for single-particle analysis: 10xHis, 3C site, UBR5, double strep tag), O95071 1-2799
